tested on: human HL60 cells; experiment: SWATH-MS proteomics, differential protein representation, akirin2 KO vs WT HL60 cells; format: cell-based; conditions: akirin2 KO vs WT HL60 cells; sheet "Under-represented in KO"
Method in brief: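 Read-out is label-free SWATH-MS protein area, globally normalized to total detected-protein area, with identifications held at 1% FDR against a library from information-dependent acquisition.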

Molecule	Fold Change	Log (Fold Change)
sp¦Q8TEX9¦IPO4_HUMAN (protein, UniProt Q8TEX9 1-1081, looked up) Importin-4: MESAGLEQLLRELLLPDTERIRRATEQLQIVLRAPAALPALCDLLASAADPQIRQFAAVLTRRRLNTRWRRLAAEQRESLKSLILTALQRETEHCVSLSLAQLSATIFRKEGLEAWPQLLQLLQHSTHSPHSPEREMGLLLLSVVVTSRPEAFQPHHRELLRLLNETLGEVGSPGLLFYSLRTLTTMAPYLSTEDVPLARMLVPKLIMAMQTLIPIDEAKACEALEALDELLESEVPVITPYLSEVLTFCLEVARNVALGNAIRIRILCCLTFLVKVKSKALLKNRLLPPLLHTLFPIVAAEPPPGQLDPEDQDSEEEELEIELMGETPKHFAVQVVDMLALHLPPEKLCPQLMPMLEEALRSESPYQRKAGLLVLAVLSDGAGDHIRQRLLPPLLQIVCKGLEDPSQVVRNAALFALGQFSENLQPHISSYSREVMPLLLAYLKSVPLGHTHHLAKACYALENFVENLGPKVQPYLPELMECMLQLLRNPSSPRAKELAVSALGAIATAAQASLLPYFPAIMEHLREFLLTGREDLQPVQIQSLETLGVLARAVGEPMRPLAEECCQLGLGLCDQVDDPDLRRCTYSLFAALSGLMGEGLAPHLEQITTLMLLSLRSTEGIVPQYDGSSSFLLFDDESDGEEEEELMDEDVEEEDDSEISGYSVENAFFDEKEDTCAAVGEISVNTSVAFLPYMESVFEEVFKLLECPHLNVRKAAHEALGQFCCALHKACQSCPSEPNTAALQAALARVVPSYMQAVNRERERQVVMAVLEALTGVLRSCGTLTLKPPGRLAELCGVLKAVLQRKTACQDTDEEEEEEDDDQAEYDAMLLEHAGEAIPALAAAAGGDSFAPFFAGFLPLLVCKTKQGCTVAEKSFAVGTLAETIQGLGAASAQFVSRLLPVLLSTAQEADPEVRSNAIFGMGVLAEHGGHPAQEHFPKLLGLLFPLLARERHDRVRDNICGALARLLMASPTRKPEPQVLAALLHALPLKEDLEEWVTIGRLFSFLYQSSPDQVIDVAPELLRICSLILADNKIPPDTKAALLLLLTFLAKQHTDSFQAALGSLPVDKAQELQAVLGLS	0.285	-0.5451
sp¦P55060¦XPO2_HUMAN (protein, UniProt P55060 1-971, looked up) Exportin-2: MELSDANLQTLTEYLKKTLDPDPAIRRPAEKFLESVEGNQNYPLLLLTLLEKSQDNVIKVCASVTFKNYIKRNWRIVEDEPNKICEADRVAIKANIVHLMLSSPEQIQKQLSDAISIIGREDFPQKWPDLLTEMVNRFQSGDFHVINGVLRTAHSLFKRYRHEFKSNELWTEIKLVLDAFALPLTNLFKATIELCSTHANDASALRILFSSLILISKLFYSLNFQDLPEFFEDNMETWMNNFHTLLTLDNKLLQTDDEEEAGLLELLKSQICDNAALYAQKYDEEFQRYLPRFVTAIWNLLVTTGQEVKYDLLVSNAIQFLASVCERPHYKNLFEDQNTLTSICEKVIVPNMEFRAADEEAFEDNSEEYIRRDLEGSDIDTRRRAACDLVRGLCKFFEGPVTGIFSGYVNSMLQEYAKNPSVNWKHKDAAIYLVTSLASKAQTQKHGITQANELVNLTEFFVNHILPDLKSANVNEFPVLKADGIKYIMIFRNQVPKEHLLVSIPLLINHLQAESIVVHTYAAHALERLFTMRGPNNATLFTAAEIAPFVEILLTNLFKALTLPGSSENEYIMKAIMRSFSLLQEAIIPYIPTLITQLTQKLLAVSKNPSKPHFNHYMFEAICLSIRITCKANPAAVVNFEEALFLVFTEILQNDVQEFIPYVFQVMSLLLETHKNDIPSSYMALFPHLLQPVLWERTGNIPALVRLLQAFLERGSNTIASAAADKIPGLLGVFQKLIASKANDHQGFYLLNSIIEHMPPESVDQYRKQIFILLFQRLQNSKTTKFIKSFLVFINLYCIKYGALALQEIFDGIQPKMFGMVLEKIIIPEIQKVSGNVEKKICAVGITKLLTECPPMMDTEYTKLWTPLLQSLIGLFELPEDDTIPDEEHFIDIEDTPGYQTAFSQLAFAGKKEHDPVGQMVNNPKIHLAQSLHKLSTACPGRVPSMVSTSLNAEALQYLQGYLQAASVTLL	0.6591	-0.1811
sp¦Q13895¦BYST_HUMAN (protein, UniProt Q13895 1-437, looked up) Bystin: MPKFKAARGVGGQEKHAPLADQILAGNAVRAGVREKRRGRGTGEAEEEYVGPRLSRRILQQARQQQEELEAEHGTGDKPAAPRERTTRLGPRMPQDGSDDEDEEWPTLEKAATMTAAGHHAEVVVDPEDERAIEMFMNKNPPARRTLADIIMEKLTEKQTEVETVMSEVSGFPMPQLDPRVLEVYRGVREVLSKYRSGKLPKAFKIIPALSNWEQILYVTEPEAWTAAAMYQATRIFASNLKERMAQRFYNLVLLPRVRDDVAEYKRLNFHLYMALKKALFKPGAWFKGILIPLCESGTCTLREAIIVGSIITKCSIPVLHSSAAMLKIAEMEYSGANSIFLRLLLDKKYALPYRVLDALVFHFLGFRTEKRELPVLWHQCLLTLVQRYKADLATDQKEALLELLRLQPHPQLSPEIRRELQSAVPRDVEDVPITVE	0.6611	-0.1797
sp¦P21912¦SDHB_HUMAN (protein, UniProt P21912 29-280, looked up) Succinate dehydrogenase …: AQTAAATAPRIKKFAIYRWDPDKAGDKPHMQTYEVDLNKCGPMVLDALIKIKNEVDSTLTFRRSCREGICGSCAMNINGGNTLACTRRIDTNLNKVSKIYPLPHMYVIKDLVPDLSNFYAQYKSIEPYLKKKDESQEGKQQYLQSIEEREKLDGLYECILCACCSTSCPSYWWNGDKYLGPAVLMQAYRWMIDSRDDFTEERLAKLQDPFSLYRCHTIMNCTRTCPKGLNPGKAIAEIKKMMATYKEKKASV	0.6622	-0.179
sp¦Q96I99¦SUCB2_HUMAN (protein, UniProt Q96I99 38-432, looked up) Succinate--CoA ligase …: LNLQEYQSKKLMSDNGVRVQRFFVADTANEALEAAKRLNAKEIVLKAQILAGGRGKGVFNSGLKGGVHLTKDPNVVGQLAKQMIGYNLATKQTPKEGVKVNKVMVAEALDISRETYLAILMDRSCNGPVLVGSPQGGVDIEEVAASNPELIFKEQIDIFEGIKDSQAQRMAENLGFVGPLKSQAADQITKLYNLFLKIDATQVEVNPFGETPEGQVVCFDAKINFDDNAEFRQKDIFAMDDKSENEPIENEAAKYDLKYIGLDGNIACFVNGAGLAMATCDIIFLNGGKPANFLDLGGGVKEAQVYQAFKLLTADPKVEAILVNIFGGIVNCAIIANGITKACRELELKVPLVVRLEGTNVQEAQKILNNSGLPITSAIDLEDAAKKAVASVAKK	0.6651	-0.1771
sp¦P56192¦SYMC_HUMAN (protein, UniProt P56192 1-900, looked up) Methionine--tRNA ligase, …: MRLFVSDGVPGCLPVLAAAGRARGRAEVLISTVGPEDCVVPFLTRPKVPVLQLDSGNYLFSTSAICRYFFLLSGWEQDDLTNQWLEWEATELQPALSAALYYLVVQGKKGEDVLGSVRRALTHIDHSLSRQNCPFLAGETESLADIVLWGALYPLLQDPAYLPEELSALHSWFQTLSTQEPCQRAAETVLKQQGVLALRPYLQKQPQPSPAEGRAVTNEPEEEELATLSEEEIAMAVTAWEKGLESLPPLRPQQNPVLPVAGERNVLITSALPYVNNVPHLGNIIGCVLSADVFARYSRLRQWNTLYLCGTDEYGTATETKALEEGLTPQEICDKYHIIHADIYRWFNISFDIFGRTTTPQQTKITQDIFQQLLKRGFVLQDTVEQLRCEHCARFLADRFVEGVCPFCGYEEARGDQCDKCGKLINAVELKKPQCKVCRSCPVVQSSQHLFLDLPKLEKRLEEWLGRTLPGSDWTPNAQFITRSWLRDGLKPRCITRDLKWGTPVPLEGFEDKVFYVWFDATIGYLSITANYTDQWERWWKNPEQVDLYQFMAKDNVPFHSLVFPCSALGAEDNYTLVSHLIATEYLNYEDGKFSKSRGVGVFGDMAQDTGIPADIWRFYLLYIRPEGQDSAFSWTDLLLKNNSELLNNLGNFINRAGMFVSKFFGGYVPEMVLTPDDQRLLAHVTLELQHYHQLLEKVRIRDALRSILTISRHGNQYIQVNEPWKRIKGSEADRQRAGTVTGLAVNIAALLSVMLQPYMPTVSATIQAQLQLPPPACSILLTNFLCTLPAGHQIGTVSPLFQKLENDQIESLRQRFGGGQAKTSPKPAVVETVTTAKPQQIQALMDEVTKQGNIVRELKAQKADKNEVAAEVAKLLDLKKQLAVAEGKPPEAPKGKKKK	0.6651	-0.1771

— paper PMC8298264, “Function of cofactor Akirin2 in the regulation of gene expression in model human neutrophil-like HL60 cells” (Bioscience Reports, 2021)
